From publication PMC9482650, “Quantitative fragmentomics allow affinity mapping of interactomes” (Nature Communications, 2022)

T1: APBA3_2, O96018
T1 sequence (O96018 480-570, limits assumed, looked up): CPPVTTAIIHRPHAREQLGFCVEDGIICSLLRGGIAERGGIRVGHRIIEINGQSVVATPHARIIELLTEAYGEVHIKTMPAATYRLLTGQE

T2: TJP3_2, O95049
T2 sequence (O95049 190-282, limits assumed, looked up): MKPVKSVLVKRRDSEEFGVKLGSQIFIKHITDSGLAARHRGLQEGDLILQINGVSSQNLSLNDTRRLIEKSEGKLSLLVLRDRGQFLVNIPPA

T3: NHERF1_1, O14745
T3 sequence (O14745 9-104, limits assumed, looked up): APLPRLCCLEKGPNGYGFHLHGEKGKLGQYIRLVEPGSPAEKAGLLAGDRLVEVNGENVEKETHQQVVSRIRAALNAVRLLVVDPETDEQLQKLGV

T4: PDZD2_1, O15018
T4 sequence (O15018 80-192, limits assumed, looked up): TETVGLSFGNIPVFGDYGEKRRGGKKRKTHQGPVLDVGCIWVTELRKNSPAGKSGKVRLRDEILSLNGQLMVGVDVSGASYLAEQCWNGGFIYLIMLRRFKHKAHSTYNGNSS

T5: SYNJ2BP, P57105
T5 sequence (P57105 8-110, limits assumed, looked up): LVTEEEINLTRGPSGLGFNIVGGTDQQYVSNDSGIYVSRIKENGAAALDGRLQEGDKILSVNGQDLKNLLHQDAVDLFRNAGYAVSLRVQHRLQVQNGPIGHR

T6: PDZD4, Q76G19
T6 sequence (Q76G19 125-224, limits assumed, looked up): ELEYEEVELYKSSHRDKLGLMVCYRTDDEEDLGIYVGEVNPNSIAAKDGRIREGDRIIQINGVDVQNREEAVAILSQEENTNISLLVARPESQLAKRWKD

T7: MAGI2_1, Q86UL8
T7 sequence (Q86UL8 12-111, limits assumed, looked up): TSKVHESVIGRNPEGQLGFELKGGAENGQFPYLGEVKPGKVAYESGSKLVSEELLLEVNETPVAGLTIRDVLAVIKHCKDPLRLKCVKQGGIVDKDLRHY

T8: PDZD7_1, Q9H5P4
T8 sequence (Q9H5P4 81-178, limits assumed, looked up): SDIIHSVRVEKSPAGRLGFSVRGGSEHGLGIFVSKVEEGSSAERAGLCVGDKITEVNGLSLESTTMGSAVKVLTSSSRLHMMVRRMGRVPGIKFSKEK

T9: CNKSR1, Q969H4
T9 sequence (Q969H4 191-295, limits assumed, looked up): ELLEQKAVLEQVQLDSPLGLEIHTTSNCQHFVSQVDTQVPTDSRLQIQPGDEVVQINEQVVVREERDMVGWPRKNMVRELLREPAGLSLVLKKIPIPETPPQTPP

T10: SHROOM3, Q8TF72
T10 sequence (Q8TF72 20-120, limits assumed, looked up): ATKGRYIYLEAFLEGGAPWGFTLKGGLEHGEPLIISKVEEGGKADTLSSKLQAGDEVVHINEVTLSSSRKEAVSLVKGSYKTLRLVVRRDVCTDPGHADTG

T11: MPDZ_11, O75970
T11 sequence (O75970 1720-1817, limits assumed, looked up): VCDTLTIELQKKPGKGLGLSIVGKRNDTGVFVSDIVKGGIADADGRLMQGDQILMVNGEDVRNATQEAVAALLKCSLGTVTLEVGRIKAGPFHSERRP

T12: PDZD2_6, O15018
T12 sequence (O15018 2745-2839, limits assumed, looked up): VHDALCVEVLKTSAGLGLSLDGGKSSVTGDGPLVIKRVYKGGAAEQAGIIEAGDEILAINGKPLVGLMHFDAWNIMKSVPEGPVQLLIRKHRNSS

T13: TJP3_1, O95049
T13 sequence (O95049 6-103, limits assumed, looked up): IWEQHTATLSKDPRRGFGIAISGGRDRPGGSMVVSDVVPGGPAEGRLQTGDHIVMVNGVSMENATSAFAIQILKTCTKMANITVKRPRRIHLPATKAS

T14: PDZRN3_2, Q9UPQ7
T14 sequence (Q9UPQ7 414-513, limits assumed, looked up): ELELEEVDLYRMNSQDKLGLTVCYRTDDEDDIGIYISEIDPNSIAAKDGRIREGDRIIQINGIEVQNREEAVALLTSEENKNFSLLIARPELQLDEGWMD

T15: PDZD2_5, O15018
T15 sequence (O15018 2617-2716, limits assumed, looked up): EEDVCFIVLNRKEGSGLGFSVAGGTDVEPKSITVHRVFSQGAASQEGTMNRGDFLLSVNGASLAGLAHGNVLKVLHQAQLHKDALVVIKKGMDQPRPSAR

B1: DOCK4, Q8N1I0 (peptide)
chain: RPLPRKVSQL
B2: HPV73-E6, Q82005 (peptide)
chain: SGSRPSATVV
B3: FRMPD4, Q14CM0 (peptide)
chain: RLPKIKETTV

How the values were obtained:
Assay in all cases: holdup assay
Parameters in all cases: key: below the threshold = too weak to quantify, mostly under pKd 3.1 to 4
Details in all cases: plain residues with an end cap or a label only (N-terminal biotin on a linker: ttds)
APBA3_2, O96018 = molecular target: T1, APBA3_2, O96018
TJP3_2, O95049 = molecular target: T2, TJP3_2, O95049
NHERF1_1, O14745 = molecular target: T3, NHERF1_1, O14745
PDZD2_1, O15018 = molecular target: T4, PDZD2_1, O15018
SYNJ2BP, P57105 = molecular target: T5, SYNJ2BP, P57105
PDZD4, Q76G19 = molecular target: T6, PDZD4, Q76G19
PDZRN4_2, Q6ZMN7 = molecular target: PDZRN4_2, Q6ZMN7
Sequence of PDZRN4_2, Q6ZMN7 (Q6ZMN7 389-498): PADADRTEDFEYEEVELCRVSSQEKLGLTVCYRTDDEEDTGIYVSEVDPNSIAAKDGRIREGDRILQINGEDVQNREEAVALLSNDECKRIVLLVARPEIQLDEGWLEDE

MAGI2_1, Q86UL8 = molecular target: T7, MAGI2_1, Q86UL8
PDZD7_1, Q9H5P4 = molecular target: T8, PDZD7_1, Q9H5P4
CNKSR1, Q969H4 = molecular target: T9, CNKSR1, Q969H4
SDCBP_1, O00560 = molecular target: SDCBP_1, O00560
Sequence of SDCBP_1, O00560 (O00560 111-198): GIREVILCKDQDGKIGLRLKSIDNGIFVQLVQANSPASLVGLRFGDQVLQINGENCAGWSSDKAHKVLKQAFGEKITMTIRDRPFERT

SHROOM3, Q8TF72 = molecular target: T10, SHROOM3, Q8TF72
MPDZ_11, O75970 = molecular target: T11, MPDZ_11, O75970
TJP1_1, Q07157 = molecular target: TJP1_1, Q07157
Sequence of TJP1_1, Q07157 (Q07157 18-120): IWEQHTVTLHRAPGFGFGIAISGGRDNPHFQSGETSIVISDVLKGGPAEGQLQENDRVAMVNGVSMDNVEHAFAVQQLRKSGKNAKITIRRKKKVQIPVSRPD

MAGIX, Q9H6Y5 = molecular target: MAGIX, Q9H6Y5
Sequence of MAGIX, Q9H6Y5 (Q9H6Y5 118-211): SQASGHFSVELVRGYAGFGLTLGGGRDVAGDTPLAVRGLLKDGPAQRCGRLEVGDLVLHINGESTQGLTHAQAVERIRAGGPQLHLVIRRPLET

PDZD2_6, O15018 = molecular target: T12, PDZD2_6, O15018
TJP3_1, O95049 = molecular target: T13, TJP3_1, O95049
RIMS1, Q86UR5 = molecular target: RIMS1, Q86UR5
Sequence of RIMS1, Q86UR5 (Q86UR5 584-692): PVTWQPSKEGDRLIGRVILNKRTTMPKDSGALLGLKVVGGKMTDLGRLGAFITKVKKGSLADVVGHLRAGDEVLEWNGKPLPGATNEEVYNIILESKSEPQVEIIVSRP

PDZRN3_2, Q9UPQ7 = molecular target: T14, PDZRN3_2, Q9UPQ7
PDZD2_5, O15018 = molecular target: T15, PDZD2_5, O15018
NHERF4_3, Q86UT5 = molecular target: NHERF4_3, Q86UT5
Sequence of NHERF4_3, Q86UT5 (Q86UT5 325-412): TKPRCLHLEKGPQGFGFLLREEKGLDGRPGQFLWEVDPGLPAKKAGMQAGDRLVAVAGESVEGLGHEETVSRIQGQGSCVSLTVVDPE

Binder | pKd (APBA3_2, O96018) | pKd (TJP3_2, O95049) | pKd (NHERF1_1, O14745) | pKd (PDZD2_1, O15018) | pKd (SYNJ2BP, P57105) | pKd (PDZD4, Q76G19) | pKd (PDZRN4_2, Q6ZMN7) | pKd (MAGI2_1, Q86UL8) | pKd (PDZD7_1, Q9H5P4) | pKd (CNKSR1, Q969H4) | pKd (SDCBP_1, O00560) | pKd (SHROOM3, Q8TF72) | pKd (MPDZ_11, O75970) | pKd (TJP1_1, Q07157) | pKd (MAGIX, Q9H6Y5) | pKd (PDZD2_6, O15018) | pKd (TJP3_1, O95049) | pKd (RIMS1, Q86UR5) | pKd (PDZRN3_2, Q9UPQ7) | pKd (PDZD2_5, O15018) | other results
B1 | below the threshold | below the threshold | below the threshold | below the threshold | 3.59 | below the threshold | 4.14 | below the threshold | 4.33 | below the threshold | below the threshold | below the threshold | below the threshold | below the threshold | below the threshold | below the threshold | below the threshold | below the threshold | below the threshold | below the threshold | pKd (NHERF4_3, Q86UT5): 4.21
B2 | below the threshold | below the threshold | below the threshold | below the threshold | 3.71 | below the threshold | below the threshold | below the threshold | below the threshold | below the threshold | below the threshold | below the threshold | below the threshold | below the threshold | below the threshold | below the threshold | 4.21 | below the threshold | below the threshold | below the threshold | pKd (NHERF4_3, Q86UT5): below the threshold
B3 | 4.47 | below the threshold | below the threshold | below the threshold | 5.47 | below the threshold | 4.43 | below the threshold | below the threshold | below the threshold | below the threshold | below the threshold | below the threshold | below the threshold | below the threshold | below the threshold | below the threshold | below the threshold | below the threshold | below the threshold | pKd (NHERF4_3, Q86UT5): below the threshold
